Data from US20090081786A1 (published 2009).

B1: glutathione-S-transferase-delta V5 PKC fusion protein (other)
chain: PKVKSPSDYSNFDPEFLNEKPQLSFSDKNLIDSMDQEAFHGFSFVNPKFEQFLDI
notes: Used as crude bacterial cell lysate (30 µg) containing the fusion protein; also called GST-δV5; δ-V5; not shown: glutathione-S-transferase (GST) fusion tag
B2: myelin basic protein (MBP)-delta V1 PKC fusion protein (other)
chain: MAPFLRISFNSYELGSLQAEDDASQPFCAVKMKEALTTDRGKTLVQKKPTMYPEWKSTFDAHIYEGRVIQIVLMRAAEDPMSEVTVGVSVLAERCKKNNGKAEFWLDLQPQAKVLMCVQYFLEDGDCKQSMRSEEEAMFPTMNRRGAIKQAKIHYIKNHE
notes: Used as crude bacterial cell lysate (30 µg) containing the fusion protein; also called MBP-δV1; δ-V1; not shown: fusion tag printed as 'myelin basic protein (MBP)'
B3: annexin V (other)
chain: AQVLRGTVTDFPGFDERADAETLRKAMKGLGTDEESILTLLTSRSNAQRQEISAAFKTLFGRDLLDDLKSELTGKFEKLIVALMKPSRLYDAYELKHALKGAGTNEKVLTEIIASRTPEELRAIKQVYEEEYGSSLEDDVVGDTSGYYQRMLVVLLQANRDPDAGIDEAQVEQDAQALFQAGELKWGTDEEKFITIFGTRSVSHLRKVFDKYMTISGFQIEETIDRETSGNLEQLLLAVVKSIRSIPAYLAETLYYAMKGAGTDDHTLIRVMVSRSEIDLFNIRKEFRKNFATSLYSMIKGDTSGDYKKALLLLCGEDD
notes: 10 µg annexin V was run on SDS-PAGE, blotted to nitrocellulose and used as the immobilized partner in the overlay assay; also called immobilized annexin V
B4: ε-V1 (V1 region of ε-PKC) (other)
chain: MVVFNGLLKIKICEAVSLKPTAWSLRHAVGPRPQTFLLDPYIALNVDDSRIGQTATKQKTNSPAWHDEFVTDVCNGRKIELAVFHDAPIGYDDFVANCTIQFEELLQNGSRHFEDWIDLEPEGKVYVIIDLSGSSGEAPKDNEE

Experiments:
annexin V [1] = biological target: B3; assay: overlay assay on blotted annexin V, FIG. 1D
Experimental: (§1) The strips were incubated with blocking buffer (50 mM Tris pH 7.5, 200 mM NaCl, 3% bovine serum albumin, 0.1% PEG20). […] The strips where then washed with wash buffer (50 mM Tris pH 7.5, 200 mM NaCl, 0.1% PEG20, 12 mM β-mercaptoethanol), and then incubated with fixative (0.2% formaldehyde in PBS) and neutralizing solution (0.2M glycine in PBS) at room temperature 20 min each. After washing with buffer, the strips were probed with antibodies according to the overlay protein, and resulting bands were visualized using ECL Western blotting.

annexin V [2] = biological target: B3; assay: overlay assay on blotted annexin V (figure legend, FIGS. 1A-D)
Experimental: as §1

full-length δ-PKC = biological target: T1, full-length δ-PKC (Mus musculus (Mouse), UniProt P28867 1-674); assay: as above
T1 construct: Full-length δ-PKC in the overlay assay; also called δ-protein kinase C; delta PKC
Experimental: as §1

annexin V [3] = biological target: B3; assay: overlay assay on annexin V blotted to nitrocellulose, FIG. 1D
Experimental: as §1

Binder: B1
- binding result (annexin V [1]): binds

Binder: B2
- binding result (annexin V [2]): binds

Binder: B3
- binding result (full-length δ-PKC): binds

Binder: B4
- binding result (annexin V [3]): no binding
